B1: 1-phosphatidylinositol 4,5-bisphosphate phosphodiesterase gamma-1 (Homo sapiens), P19174 (parent)
chain: MAGAASPCANGCGPGAPSDAEVLHLCRSLEVGTVMTLFYSKKSQRPERKTFQVKLETRQITWSRGADKIEGAIDIREIKEIRPGKTSRDFDRYQEDPAFRPDQSHCFVILYGMEFRLKTLSLQATSEDEVNMWIKGLTWLMEDTLQAPTPLQIERWLRKQFYSVDRNREDRISAKDLKNMLSQVNYRVPNMRFLRERLTDLEQRSGDITYGQFAQLYRSLMYSAQKTMDLPFLEASTLRAGERPELCRVSLPEFQQFLLDYQGELWAVDRLQVQEFMLSFLRDPLREIEEPYFFLDEFVTFLFSKENSVWNSQLDAVCPDTMNNPLSHYWISSSHNTYLTGDQFSSESSLEAYARCLRMGCRCIELDCWDGPDGMPVIYHGHTLTTKIKFSDVLHTIKEHAFVASEYPVILSIEDHCSIAQQRNMAQYFKKVLGDTLLTKPVEISADGLPSPNQLKRKILIKHKKLAEGSAYEEVPTSMMYSENDISNSIKNGILYLEDPVNHEWYPHYFVLTSSKIYYSEETSSDQGNEDEEEPKEVSSSTELHSNEKWFHGKLGAGRDGRHIAERLLTEYCIETGAPDGSFLVRESETFVGDYTLSFWRNGKVQHCRIHSRQDAGTPKFFLTDNLVFDSLYDLITHYQQVPLRCNEFEMRLSEPVPQTNAHESKEWYHASLTRAQAEHMLMRVPRDGAFLVRKRNEPNSYAISFRAEGKIKHCRVQQEGQTVMLGNSEFDSLVDLISYYEKHPLYRKMKLRYPINEEALEKIGTAEPDYGALYEGRNPGFYVEANPMPTFKCAVKALFDYKAQREDELTFIKSAIIQNVEKQEGGWWRGDYGGKKQLWFPSNYVEEMVNPVALEPEREHLDENSPLGDLLRGVLDVPACQIAIRPEGKNNRLFVFSISMASVAHWSLDVAADSQEELQDWVKKIREVAQTADARLTEGKIMERRKKIALELSELVVYCRPVPFDEEKIGTERACYRDMSSFPETKAEKYVNKAKGKKFLQYNRLQLSRIYPKGQRLDSSNYDPLPMWICGSQLVALNFQTPDKPMQMNQALFMTGRHCGYVLQPSTMRDEAFDPFDKSSLRGLEPCAISIEVLGARHLPKNGRGIVCPFVEIEVAGAEYDSTKQKTEFVVDNGLNPVWPAKPFHFQISNPEFAFLRFVVYEEDMFSDQNFLAQATFPVKGLKTGYRAVPLKNNYSEDLELASLLIKIDIFPAKENGDLSPFSGTSLRERGSDASGQLFHGRAREGSFESRYQQPFEDFRISQEHLADHFDSRERRAPRRTRVNGDNRL
B2: 1-phosphatidylinositol 4,5-bisphosphate phosphodiesterase gamma-1 (Homo sapiens), P19174 (parent)
chain: B1 chain
partner: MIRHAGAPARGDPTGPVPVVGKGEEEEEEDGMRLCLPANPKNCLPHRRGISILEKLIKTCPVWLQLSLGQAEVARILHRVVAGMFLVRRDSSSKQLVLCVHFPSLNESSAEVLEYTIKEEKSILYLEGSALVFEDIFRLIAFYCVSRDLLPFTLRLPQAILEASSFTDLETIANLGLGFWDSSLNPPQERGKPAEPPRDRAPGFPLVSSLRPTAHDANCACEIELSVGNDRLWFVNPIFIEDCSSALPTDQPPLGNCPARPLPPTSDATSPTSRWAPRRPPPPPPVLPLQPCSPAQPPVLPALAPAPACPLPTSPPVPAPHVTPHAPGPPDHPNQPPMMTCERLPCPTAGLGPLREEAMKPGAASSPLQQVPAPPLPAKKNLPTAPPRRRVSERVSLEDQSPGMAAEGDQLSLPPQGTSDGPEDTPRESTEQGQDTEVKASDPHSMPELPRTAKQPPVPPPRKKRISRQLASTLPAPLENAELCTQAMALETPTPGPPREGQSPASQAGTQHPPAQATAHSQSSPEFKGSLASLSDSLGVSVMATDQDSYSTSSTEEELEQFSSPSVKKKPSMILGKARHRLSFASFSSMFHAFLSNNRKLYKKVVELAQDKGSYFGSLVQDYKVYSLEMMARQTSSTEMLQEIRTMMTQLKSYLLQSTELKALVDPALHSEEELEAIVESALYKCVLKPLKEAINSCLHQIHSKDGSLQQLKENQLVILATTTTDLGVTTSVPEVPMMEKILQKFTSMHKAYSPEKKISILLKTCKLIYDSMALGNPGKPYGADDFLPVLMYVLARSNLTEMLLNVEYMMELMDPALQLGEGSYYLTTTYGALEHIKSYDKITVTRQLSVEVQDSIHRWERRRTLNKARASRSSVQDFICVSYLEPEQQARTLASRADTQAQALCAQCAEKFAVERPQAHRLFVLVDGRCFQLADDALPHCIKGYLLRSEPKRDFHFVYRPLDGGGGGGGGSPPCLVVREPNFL

Experiments:
[1] = variants of: B1; conditions: with asap2_human ASAP2, O43150
asap2_human ASAP2, O43150, sequence (O43150 whole entry): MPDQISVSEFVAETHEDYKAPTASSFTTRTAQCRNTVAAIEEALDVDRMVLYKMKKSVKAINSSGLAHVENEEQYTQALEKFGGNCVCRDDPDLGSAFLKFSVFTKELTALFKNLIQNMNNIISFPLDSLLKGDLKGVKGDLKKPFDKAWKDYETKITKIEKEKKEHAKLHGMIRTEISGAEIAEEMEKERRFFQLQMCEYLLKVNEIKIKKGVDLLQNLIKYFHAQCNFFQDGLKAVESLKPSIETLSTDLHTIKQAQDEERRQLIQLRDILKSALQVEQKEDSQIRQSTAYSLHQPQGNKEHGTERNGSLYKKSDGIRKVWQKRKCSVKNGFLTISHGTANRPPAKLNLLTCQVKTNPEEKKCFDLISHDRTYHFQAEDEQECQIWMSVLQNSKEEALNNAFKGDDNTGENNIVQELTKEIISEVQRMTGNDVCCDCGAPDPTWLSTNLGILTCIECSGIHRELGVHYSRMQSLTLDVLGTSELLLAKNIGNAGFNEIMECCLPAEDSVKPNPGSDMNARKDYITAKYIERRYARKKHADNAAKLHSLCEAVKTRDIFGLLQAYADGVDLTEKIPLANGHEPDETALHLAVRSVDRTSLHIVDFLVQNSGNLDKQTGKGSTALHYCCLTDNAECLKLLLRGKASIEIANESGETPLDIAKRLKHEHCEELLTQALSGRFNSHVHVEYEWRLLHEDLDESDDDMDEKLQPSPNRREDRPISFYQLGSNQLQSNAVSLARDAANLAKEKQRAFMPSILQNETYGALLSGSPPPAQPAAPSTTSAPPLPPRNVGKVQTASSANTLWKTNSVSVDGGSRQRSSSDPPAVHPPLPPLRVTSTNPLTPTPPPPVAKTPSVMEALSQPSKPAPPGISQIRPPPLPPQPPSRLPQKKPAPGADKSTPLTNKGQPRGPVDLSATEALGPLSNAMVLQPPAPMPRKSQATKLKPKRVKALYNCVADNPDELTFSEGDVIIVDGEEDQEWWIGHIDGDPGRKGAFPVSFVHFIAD

abl2_human ABL2, P42684 = variants of: B1; conditions: with abl2_human ABL2, P42684
abl2_human ABL2, P42684, sequence (P42684 whole entry): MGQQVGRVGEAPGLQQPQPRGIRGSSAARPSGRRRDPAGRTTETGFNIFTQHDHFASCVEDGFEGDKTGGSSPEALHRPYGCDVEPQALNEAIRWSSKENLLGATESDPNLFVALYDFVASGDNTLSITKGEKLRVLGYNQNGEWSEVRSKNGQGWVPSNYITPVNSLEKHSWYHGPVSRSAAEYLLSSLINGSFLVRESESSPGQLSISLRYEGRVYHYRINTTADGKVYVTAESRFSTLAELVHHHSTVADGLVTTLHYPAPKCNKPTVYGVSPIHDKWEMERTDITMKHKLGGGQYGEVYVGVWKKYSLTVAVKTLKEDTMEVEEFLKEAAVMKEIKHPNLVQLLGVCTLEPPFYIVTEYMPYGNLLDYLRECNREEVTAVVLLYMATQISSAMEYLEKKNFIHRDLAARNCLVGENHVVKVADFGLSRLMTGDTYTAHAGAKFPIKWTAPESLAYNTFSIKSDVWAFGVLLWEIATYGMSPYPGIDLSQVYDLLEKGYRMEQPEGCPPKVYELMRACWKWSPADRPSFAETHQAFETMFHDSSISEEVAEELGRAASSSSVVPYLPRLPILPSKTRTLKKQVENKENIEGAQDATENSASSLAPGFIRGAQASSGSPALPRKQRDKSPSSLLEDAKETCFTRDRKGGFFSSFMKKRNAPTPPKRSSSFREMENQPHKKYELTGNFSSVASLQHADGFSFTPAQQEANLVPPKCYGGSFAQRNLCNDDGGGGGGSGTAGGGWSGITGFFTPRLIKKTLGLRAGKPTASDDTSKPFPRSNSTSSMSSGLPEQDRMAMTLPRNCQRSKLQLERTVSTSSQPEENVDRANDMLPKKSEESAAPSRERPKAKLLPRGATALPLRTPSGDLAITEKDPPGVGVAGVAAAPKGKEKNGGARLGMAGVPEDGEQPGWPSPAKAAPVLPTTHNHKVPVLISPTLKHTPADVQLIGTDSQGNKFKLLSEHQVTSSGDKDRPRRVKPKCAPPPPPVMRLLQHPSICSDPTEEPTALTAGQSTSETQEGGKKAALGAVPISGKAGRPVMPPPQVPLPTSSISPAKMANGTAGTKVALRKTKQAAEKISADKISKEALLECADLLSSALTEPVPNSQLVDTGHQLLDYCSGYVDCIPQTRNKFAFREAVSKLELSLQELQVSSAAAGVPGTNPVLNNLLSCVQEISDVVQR

[2] = variants of: B1; conditions: with shan2_human SHANK2, Q9UPX8
shan2_human SHANK2, Q9UPX8, sequence (Q9UPX8 whole entry): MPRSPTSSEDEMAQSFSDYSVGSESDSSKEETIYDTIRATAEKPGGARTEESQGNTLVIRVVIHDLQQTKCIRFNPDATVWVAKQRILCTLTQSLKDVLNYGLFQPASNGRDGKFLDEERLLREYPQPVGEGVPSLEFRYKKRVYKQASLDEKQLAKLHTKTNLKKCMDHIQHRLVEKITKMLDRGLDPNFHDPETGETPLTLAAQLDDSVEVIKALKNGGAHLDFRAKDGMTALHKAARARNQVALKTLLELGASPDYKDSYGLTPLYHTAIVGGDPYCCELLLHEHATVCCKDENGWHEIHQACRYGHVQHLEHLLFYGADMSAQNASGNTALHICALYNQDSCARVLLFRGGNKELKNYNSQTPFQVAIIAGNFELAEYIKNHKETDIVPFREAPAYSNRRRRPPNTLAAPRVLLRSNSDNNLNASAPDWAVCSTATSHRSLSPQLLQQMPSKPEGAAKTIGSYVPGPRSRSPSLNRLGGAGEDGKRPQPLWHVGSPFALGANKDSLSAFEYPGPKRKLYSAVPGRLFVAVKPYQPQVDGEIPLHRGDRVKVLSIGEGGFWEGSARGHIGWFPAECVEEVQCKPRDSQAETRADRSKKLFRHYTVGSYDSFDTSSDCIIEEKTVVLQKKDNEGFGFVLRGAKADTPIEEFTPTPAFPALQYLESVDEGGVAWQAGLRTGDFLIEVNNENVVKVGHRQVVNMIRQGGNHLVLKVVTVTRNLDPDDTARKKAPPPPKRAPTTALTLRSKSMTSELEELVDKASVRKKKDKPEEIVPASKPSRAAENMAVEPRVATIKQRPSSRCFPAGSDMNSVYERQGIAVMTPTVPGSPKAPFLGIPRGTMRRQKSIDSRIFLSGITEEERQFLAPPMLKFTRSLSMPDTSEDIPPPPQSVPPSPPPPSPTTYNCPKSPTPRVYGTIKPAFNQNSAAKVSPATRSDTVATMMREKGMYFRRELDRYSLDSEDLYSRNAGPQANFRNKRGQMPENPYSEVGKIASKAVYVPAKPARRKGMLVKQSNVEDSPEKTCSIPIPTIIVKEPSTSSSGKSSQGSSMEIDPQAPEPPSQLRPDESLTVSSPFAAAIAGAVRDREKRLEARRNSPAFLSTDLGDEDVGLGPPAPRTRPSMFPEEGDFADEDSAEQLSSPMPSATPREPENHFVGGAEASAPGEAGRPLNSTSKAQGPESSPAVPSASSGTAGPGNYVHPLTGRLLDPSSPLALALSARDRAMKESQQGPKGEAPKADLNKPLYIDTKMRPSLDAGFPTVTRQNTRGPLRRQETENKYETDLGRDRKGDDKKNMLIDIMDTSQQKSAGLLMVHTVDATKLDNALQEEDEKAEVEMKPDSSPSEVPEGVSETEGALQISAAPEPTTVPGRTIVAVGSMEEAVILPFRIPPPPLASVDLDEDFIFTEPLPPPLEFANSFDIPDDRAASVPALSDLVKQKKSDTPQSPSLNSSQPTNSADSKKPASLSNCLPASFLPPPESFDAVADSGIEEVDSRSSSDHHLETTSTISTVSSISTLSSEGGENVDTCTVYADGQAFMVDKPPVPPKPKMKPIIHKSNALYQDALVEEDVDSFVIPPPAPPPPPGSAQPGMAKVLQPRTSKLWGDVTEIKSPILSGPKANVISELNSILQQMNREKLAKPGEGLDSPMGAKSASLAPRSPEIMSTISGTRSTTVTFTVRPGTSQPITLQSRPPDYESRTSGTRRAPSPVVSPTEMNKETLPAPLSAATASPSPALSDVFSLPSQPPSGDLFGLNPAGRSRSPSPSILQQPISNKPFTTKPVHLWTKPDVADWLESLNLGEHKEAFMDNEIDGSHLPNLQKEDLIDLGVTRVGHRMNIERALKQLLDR

[3] = variants of: B1; conditions: with m4k1_human MAP4K1, Q92918
m4k1_human MAP4K1, Q92918, sequence (Q92918 whole entry, looked up): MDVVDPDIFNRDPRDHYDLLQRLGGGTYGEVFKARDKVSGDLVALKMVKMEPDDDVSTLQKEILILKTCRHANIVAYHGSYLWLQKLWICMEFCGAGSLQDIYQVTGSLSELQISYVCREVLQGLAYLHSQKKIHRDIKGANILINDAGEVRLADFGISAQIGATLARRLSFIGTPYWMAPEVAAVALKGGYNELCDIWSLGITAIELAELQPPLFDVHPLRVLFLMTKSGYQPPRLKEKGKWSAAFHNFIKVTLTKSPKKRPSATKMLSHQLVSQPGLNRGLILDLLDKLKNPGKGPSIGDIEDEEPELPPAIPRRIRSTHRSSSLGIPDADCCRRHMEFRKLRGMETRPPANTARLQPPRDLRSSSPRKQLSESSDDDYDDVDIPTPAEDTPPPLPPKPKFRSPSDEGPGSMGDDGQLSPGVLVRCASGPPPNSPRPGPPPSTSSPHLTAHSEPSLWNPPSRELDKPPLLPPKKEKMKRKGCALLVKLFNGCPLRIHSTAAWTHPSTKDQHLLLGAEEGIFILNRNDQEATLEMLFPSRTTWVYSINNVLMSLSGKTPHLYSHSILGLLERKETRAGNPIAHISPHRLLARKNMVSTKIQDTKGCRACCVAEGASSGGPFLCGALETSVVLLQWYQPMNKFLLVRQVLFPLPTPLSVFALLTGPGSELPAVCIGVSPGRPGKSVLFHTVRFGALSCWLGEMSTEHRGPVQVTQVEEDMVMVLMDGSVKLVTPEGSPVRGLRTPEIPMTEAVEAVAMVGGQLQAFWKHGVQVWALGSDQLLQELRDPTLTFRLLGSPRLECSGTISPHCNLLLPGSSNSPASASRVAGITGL

rin3_human RIN3, Q8TB24 = variants of: B2; conditions: with rin3_human RIN3, Q8TB24

| effect of a mutation on the interaction [1] | effect of a mutation on the interaction (abl2_human ABL2, P42684) | effect of a mutation on the interaction [2] | effect of a mutation on the interaction [3] | effect of a mutation on the interaction (rin3_human RIN3, Q8TB24) | Variant |
| --- | --- | --- | --- | --- | --- |
| disrupting interaction | disrupting interaction | disrupting interaction | disrupting interaction | – | W828A |
| – | – | – | – | disrupting interaction | W828A |

Source: IntAct's records for PubMed 17474147
